Results published in publication PMC11685595 (Scientific Reports, 2024).

Assays:
Experiment in all cases: other fluorescence titration; intrinsic Trp fluorescence quenching, plate-based (96-well), 0-750 µM peptide added to 8 µM enzyme.Ni(II) (1:2), anaerobic preparation, 10 min at 25 °C, 50 mM Tris pH 7.5, 0.4 M NaCl; λex/λem 280/350 nm; fit to one-site specific binding with or without Hill slope
Settings in all cases: both partners purified
[1] = biological target: T1, AtRAP2.12_(2-15) 14-mer peptide (Arabidopsis thaliana, UniProt Q9SSA8 2-15)
T1 construct: RELATED TO AP-2.12 (RAP2.12), Arabidopsis thaliana ERFVII, Cys-initiating residues 2-15; also called RAP2_(2-15); source: synthetic peptide (GL Biochem, China)

[2] = biological target: T2, AtHRE1_(2-15) 14-mer peptide (Arabidopsis thaliana, UniProt Q8H0T5 2-15)
T2 construct: HRE1, Arabidopsis thaliana ERFVII, Cys-initiating residues 2-15; source: synthetic peptide (GL Biochem, China)

[3] = biological target: T3, AtZPR2_(2-15) 14-mer peptide (Arabidopsis thaliana, UniProt Q9LZX5 2-15)
T3 construct: Little Zipper 2 (ZPR2), Arabidopsis thaliana, Cys-initiating residues 2-15; source: synthetic peptide (GL Biochem, China)

[4] = biological target: T4, AtVRN2_(2-15) 14-mer peptide (Arabidopsis thaliana, UniProt Q8W5B1 2-15)
T4 construct: Polycomb group protein Vernalisation 2 (VRN2), Arabidopsis thaliana, Cys-initiating residues 2-15; source: synthetic peptide (GL Biochem, China)

B1: Arabidopsis thaliana Plant Cysteine Oxidase 5, Ni(II)-substituted (AtPCO5.Ni(II)) (enzyme)
chain: not shown
notes: Plant Cysteine Oxidase 5 (AtPCO5), Arabidopsis thaliana; Active-site Fe(II) removed and replaced with Ni(II) (enzyme:metal 1:2)
Kd [1]: 258 ± 14.3 µM
Kd [2]: 223 ± 10.3 µM
Kd [3]: 692 ± 513 µM
Kd [4]: 107 ± 29.7 µM
